Read-outs that look alike come from different tables or passages of the source.
T1: Sortilin SORTECDBAP_hB12390 (human/tetraodon chimera)
T1 construct: Shuffle construct: chimeric human/tetraodon Sortilin ECD with BAP tag
T1 chain: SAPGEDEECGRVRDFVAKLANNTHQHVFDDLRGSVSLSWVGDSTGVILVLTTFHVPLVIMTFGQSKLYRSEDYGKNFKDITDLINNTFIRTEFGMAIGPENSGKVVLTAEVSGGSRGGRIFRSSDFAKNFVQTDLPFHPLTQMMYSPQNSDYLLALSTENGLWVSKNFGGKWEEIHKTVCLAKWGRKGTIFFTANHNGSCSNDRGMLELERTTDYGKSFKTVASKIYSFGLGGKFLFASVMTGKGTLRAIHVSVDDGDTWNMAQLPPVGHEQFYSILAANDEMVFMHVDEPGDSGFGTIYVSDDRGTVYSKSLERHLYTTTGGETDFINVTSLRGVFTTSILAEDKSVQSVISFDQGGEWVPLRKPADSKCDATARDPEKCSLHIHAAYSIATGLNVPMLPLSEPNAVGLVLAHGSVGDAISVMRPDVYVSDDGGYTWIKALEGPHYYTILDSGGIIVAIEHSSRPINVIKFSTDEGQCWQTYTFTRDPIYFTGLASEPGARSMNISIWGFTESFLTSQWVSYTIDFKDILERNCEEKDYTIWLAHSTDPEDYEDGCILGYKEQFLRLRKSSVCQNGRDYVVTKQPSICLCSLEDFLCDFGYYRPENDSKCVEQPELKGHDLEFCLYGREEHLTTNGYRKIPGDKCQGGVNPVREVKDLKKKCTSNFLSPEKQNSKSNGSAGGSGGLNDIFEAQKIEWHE

T2: hBack
T2 chimeric human/tetraodon Sortilin extracellular region, BAP tag: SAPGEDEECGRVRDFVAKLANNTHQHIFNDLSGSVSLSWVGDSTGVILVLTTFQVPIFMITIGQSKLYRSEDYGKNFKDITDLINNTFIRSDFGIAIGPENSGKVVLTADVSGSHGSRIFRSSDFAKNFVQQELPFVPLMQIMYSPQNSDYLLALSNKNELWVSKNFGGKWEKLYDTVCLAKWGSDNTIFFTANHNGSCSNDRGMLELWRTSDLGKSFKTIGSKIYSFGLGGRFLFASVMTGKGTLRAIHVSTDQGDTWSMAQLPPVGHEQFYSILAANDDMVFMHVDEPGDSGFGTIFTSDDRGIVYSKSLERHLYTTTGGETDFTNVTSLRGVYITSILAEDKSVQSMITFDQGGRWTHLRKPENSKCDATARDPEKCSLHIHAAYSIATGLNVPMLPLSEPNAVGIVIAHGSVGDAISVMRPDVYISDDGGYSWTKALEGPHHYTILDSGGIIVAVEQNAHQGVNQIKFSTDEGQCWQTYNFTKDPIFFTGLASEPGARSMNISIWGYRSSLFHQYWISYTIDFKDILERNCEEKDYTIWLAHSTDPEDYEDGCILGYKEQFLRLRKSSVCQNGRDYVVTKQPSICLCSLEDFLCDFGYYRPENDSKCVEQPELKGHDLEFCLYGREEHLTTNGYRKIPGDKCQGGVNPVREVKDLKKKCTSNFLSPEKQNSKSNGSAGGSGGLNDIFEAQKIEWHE

T3: Sortilin SORTECDBAP_hB01-05 (human/tetraodon chimera)
T3 construct: Shuffle construct: chimeric human/tetraodon Sortilin ECD with BAP tag
T3 chain: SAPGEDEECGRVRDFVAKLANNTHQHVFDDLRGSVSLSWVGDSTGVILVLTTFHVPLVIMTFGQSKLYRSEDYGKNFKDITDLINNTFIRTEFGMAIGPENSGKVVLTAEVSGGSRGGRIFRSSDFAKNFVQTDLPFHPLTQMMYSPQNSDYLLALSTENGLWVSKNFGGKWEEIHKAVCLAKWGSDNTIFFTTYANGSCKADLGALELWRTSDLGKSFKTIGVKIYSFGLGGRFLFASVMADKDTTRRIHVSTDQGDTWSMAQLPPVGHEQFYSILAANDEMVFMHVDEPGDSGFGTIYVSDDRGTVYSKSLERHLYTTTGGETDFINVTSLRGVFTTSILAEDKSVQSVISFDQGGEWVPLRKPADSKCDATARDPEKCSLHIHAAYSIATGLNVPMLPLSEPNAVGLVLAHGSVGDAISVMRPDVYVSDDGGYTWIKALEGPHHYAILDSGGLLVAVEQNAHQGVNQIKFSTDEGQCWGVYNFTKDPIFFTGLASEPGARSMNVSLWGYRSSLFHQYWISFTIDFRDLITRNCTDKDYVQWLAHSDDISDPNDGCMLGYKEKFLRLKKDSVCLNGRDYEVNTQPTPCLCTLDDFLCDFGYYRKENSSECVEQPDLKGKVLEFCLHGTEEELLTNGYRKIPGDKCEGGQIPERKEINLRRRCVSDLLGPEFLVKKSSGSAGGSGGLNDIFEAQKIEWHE

T4: Sortilin SORTECDBAP_tetra (tetraodon)
T4 construct: Fully tetraodon Sortilin ECD with BAP tag; also called tetraodon; tetraodon Sortilin
T4 chain: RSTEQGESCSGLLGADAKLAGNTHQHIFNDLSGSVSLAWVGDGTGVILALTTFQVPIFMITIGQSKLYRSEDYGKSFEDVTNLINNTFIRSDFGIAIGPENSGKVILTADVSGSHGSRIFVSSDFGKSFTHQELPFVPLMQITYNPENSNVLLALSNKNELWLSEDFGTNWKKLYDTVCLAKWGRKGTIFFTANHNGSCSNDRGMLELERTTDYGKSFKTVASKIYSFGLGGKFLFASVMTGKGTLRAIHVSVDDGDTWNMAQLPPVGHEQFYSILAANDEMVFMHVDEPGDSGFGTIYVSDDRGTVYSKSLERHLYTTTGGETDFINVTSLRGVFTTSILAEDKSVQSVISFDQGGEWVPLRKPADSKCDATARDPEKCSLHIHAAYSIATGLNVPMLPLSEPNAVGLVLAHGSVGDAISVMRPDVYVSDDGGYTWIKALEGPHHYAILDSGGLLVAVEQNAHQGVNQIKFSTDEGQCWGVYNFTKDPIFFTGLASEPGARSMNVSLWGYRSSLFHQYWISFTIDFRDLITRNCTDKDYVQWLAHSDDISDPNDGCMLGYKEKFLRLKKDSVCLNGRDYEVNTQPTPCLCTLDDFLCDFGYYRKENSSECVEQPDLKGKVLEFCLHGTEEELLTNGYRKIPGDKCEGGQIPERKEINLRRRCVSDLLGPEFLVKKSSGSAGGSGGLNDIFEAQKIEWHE


Tests used:
Assay in all cases: BLI (Octet384RED)
[1] = molecular target: T1, Sortilin SORTECDBAP_hB12390
[2] = molecular target: T2, hBack
[3] = molecular target: T3, Sortilin SORTECDBAP_hB01-05
[4] = molecular target: T4, Sortilin SORTECDBAP_tetra
[5] = molecular target: T1, Sortilin SORTECDBAP_hB12390
[6] = molecular target: T2, hBack
[7] = molecular target: T3, Sortilin SORTECDBAP_hB01-05
[8] = molecular target: T4, Sortilin SORTECDBAP_tetra

Row | EC50 [1] [ng/mL] | EC50 [2] [ng/mL] | binding result [3] | binding result [4] | EC50 [5] [ng/mL] | EC50 [6] [ng/mL] | binding result [7] | binding result [8] | Binder
1 | 11.4 | 2.62 | no binding | no binding |  |  |  |  | Antibody 6003-936 (antibody, human IgG1, V domains shown) VH: EVQLVQSGAEVKKPGESLKISCKGSGYIFTSFWIGWVRQMPGKGLEWMGIIYPGDSDTRYSPSFQGQVTISADKSISTAYLQWSSLKASDTAMYYCARHSRGSFWYGAFQHWGQGTLVTVSS VL: EIVLTQSPDFQSVTPKEKVTITCRASQSIGSSLHWYQQKPDQSPKLLIKYASQSFSGVPSRFSGSGSGTDFTLTINSLEAEDAAAYYCHQSSSLPHTFGPGTKVDIK
2 |  |  |  |  | 3.55 | 4 | no binding | no binding | Antibody 6003-423 (antibody, human IgG1, V domains shown) VH: EVQLLESGGGLVQPGGSLRLSCEASGFTFRSYVMSWVRQAPGKGLEWVSTISGGGGNTNYTDSVKGRFTISRDNSKNTLYLQMNSLRAEDTAVYYCAKNWGSGFDYWGQGTLVTVSS VL: EIVLTQSPATLSLSPGERATLSCRASQSVSSYLAWYQQKPGQAPRLLIYDASNRATGIPARFSGSGSGTDFTLTISSLEPEDFAVYYCQQRSNWLIFTFGPGTKVDIK
3 |  |  |  |  | 3.16 | 2.54 | no binding | no binding | Antibody 6003-471 (antibody, V domains shown) VH: QVQLVQSGAEVKKPGSSVKVSCKASGGTFSNYAISWVRQAPGQGLEWMGRIIPIFGIANYAQKFQGRVTITADKSTSTAYMELSSLRSEDTAVYYCARDRRGFSGYEVFDYWGQGTLVTVSS VL: DIQMTQSPSSLSASVGDRVTITCRASQGISSWLAWYQQKPEKAPKSLIYATSSLQSGVPSRFSGSGSGTDFTLTISSLQPEDFATYYCQQYNSYPITFGQGTRLEIK
